{"source": "the nanobody polyreactivity screen of Harvey et al. (2022)", "data": [{"experiment": "yeast display, Sf9 membrane polyspecificity reagent, FACS + sequencing; frameworks hold sequencing errors", "procedure,_shortened": "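Sorting gates, low and high (top ~1%), were placed on anti-HA fluorescence to track expression and on streptavidin fluorescence to track reagent binding. A clone's polyreactivity label is taken from the gate it came out of. The reagent was 10% biotinylated, detergent-solubilized Sf9 membrane, applied for 1 hour at 4 °C to galactose-induced yeast display cells.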", "values": [{"sequence": "QVQLVESGGGLVQAGGSLRLSCAASGSIFQRYAMGWYRQAPGKERELVAAISGSGGRTYYADSVKGRFTISRDNAKNTVYLQMNSLKPEDTAVYYCAKDFRLRGGYDYWGQGTQVTVSS", "polyreactivity (PSR sort gate)": "high polyreactivity"}, {"sequence": "QVQLVESGGGLVQAGGSLRLSCAASGSIFGYNAMGWYRQAPGKDREFVAAIRWSSGSTYYADSVKGRFTISRDNAKNTVYLQMNSLKPEDTAVYYCATRQTYLYWGQGTQVTVSS", "polyreactivity (PSR sort gate)": "high polyreactivity"}, {"sequence": "QVQLVASGGGLVQAGGSLRLRCAASGFIFRYNTMGWYRQAPGKEREMVAVINRGGSTYYADSVKGRFTISRDNAKNTVYLQLNSLKAEDTGVYDCNVAKFGRYYYWGQGTQVTVSS", "polyreactivity (PSR sort gate)": "high polyreactivity"}, {"sequence": "QVQLVESGGGLVQAGGSLRLSCAASGRTFRVYAMGWYRQAPGKERELVAAIRSGGSTNYADSVKGRFTISRDNAKNTVYLQMNSLKPEDTAVYYCAAVYRNNRQGYQFDYWGQGTQVTVSS", "polyreactivity (PSR sort gate)": "high polyreactivity"}, {"sequence": "QVQLVESGGGLVQAGGSLRLSCAASGSTFYINAMGWYRPAPGKERELVAAITDSGGSTYYADSVKGRFTISRDNAKNTVSLQMNSLKPEDTAVYYCATDGYDPRGYDYWGQGTQVTVSS", "polyreactivity (PSR sort gate)": "high polyreactivity"}, {"sequence": "HVQLVESGGGLVQAGGSLRISCAASGRTFYSYVMGWYRQAPGKQRQLVAAISSGGGRTYYADSVKGRFTISRDNAKHTVYLQMNSLKPEDTAVYYCNAVTRGTRWGLPYEYWGQGTQVTVSS", "polyreactivity (PSR sort gate)": "high polyreactivity"}, {"sequence": "QVQLVESGGGLVQAGGSLRLSCAASGFTIYYYAMGWYRQAPGKERELVASITSGGSTYYADSVKGRFTISRDNAKNTVYLQMHSLKPEDTAVYDCAKTRLHSKEGDYWGQGTQVTVSS", "polyreactivity (PSR sort gate)": "low polyreactivity"}, {"sequence": "QVQLVESGGGLVQAGGSLRLSCAASGSTFVTNVMGSYRQAPGKERELVAAISYSGGNTYYEDSVKGRFTISRDNSKNTVYLQRNSLNPEDTAVYYCDASYKQFKKMGYWGQGTQVTVSS", "polyreactivity (PSR sort gate)": "high polyreactivity"}, {"sequence": "QVQLVESGGGLVQAGGSLRLSCAASGSIFTGNAMGSYRQAPGKERELVAAISSSGARTYYADSVKGRFTISRDNAKNTVNLQMNSLKPEDTAVYYCNADSYTLYGLYDYWGQGTKVTVSS", "polyreactivity (PSR sort gate)": "low polyreactivity"}, {"sequence": "QVQLVESGGGLVQAGGSLRLSCAASGGTFHHYAMGWYRQAPGKERELVASITNGASTYYADSVKGRFTISRDNAKNTVYLQMNSLKPEDTAVYYCAKRCRVGKYRYEYWGQGTQVTVSS", "polyreactivity (PSR sort gate)": "low polyreactivity"}, {"sequence": "QVQLVESGGGLVQAGGSLRLSCAASGYIFVHYAMGWYRQEPGKERELVAAISKSGSSTYYADSVKGRFTISRDNAKNTVYLQMHSLKPEDTAVYYCAGVYPYVSGYTYGYWGQGTQVTVSS", "polyreactivity (PSR sort gate)": "low polyreactivity"}, {"sequence": "QVQLVESGGGLVQAGGSLRLSCAASGSTLGGNAMGWYRRAPGKERELVAAITSSAGSTYYADSVKGRFTISRDNAKNTVYLQMNSLKPEDTAVYYCAADYSRDEYDYWGQGTQVTVSS", "polyreactivity (PSR sort gate)": "low polyreactivity"}, {"sequence": "QVQLVESGGGLVQAGGSLRLSCAASGRTFWTNTMGWYRQAPGNEREFVAAITFGDGSTSYADSVKGRFTISRDNAKNTVYLQMNCLIAEVTAVYYCAKRWRRRFVDVWSLYDYWGQGTQVTVSS", "polyreactivity (PSR sort gate)": "low polyreactivity"}, {"sequence": "QVQLVESGGGLDQAGGSLRLSCAASGSTFKHNAMGWYRQAPAKERVLVAGISWGGSSTYYADSVKGRFTISRDNAKNTVYLQMNSLKPDDTAVYYCAKGGYRRYGYDYWGQGTQVTVSS", "polyreactivity (PSR sort gate)": "low polyreactivity"}, {"sequence": "QVQLVESGGGLVQAGGSLRLSCAASGIIFHFNDMGWYRQAPGKERELVAAIDSTGSTNYADSVKGRFTISRDNAKNTVYLQMNSLKPEDTAVYYCAVLNHRVDSVLTRYYYWGQGTQVTVSS", "polyreactivity (PSR sort gate)": "low polyreactivity"}, {"sequence": "QVQLVESGGGLVQAGGSLRLSCAASGSTFGRYVMGWYRQAPGKERELVAAISKNAGSTYYADSVKGRFTISRDNAKNTVYLQMNRLKPEDTAVYYCAADWRTKGYDSLGQGTQVTVSS", "polyreactivity (PSR sort gate)": "high polyreactivity"}, {"sequence": "QVQLVESGGGLVQAGGSLRLSCAASGLIFNEYAMGWYRQAPGKERELVAAISWSDGGTSYADSVKGRFTISRDNAKNTVYLQMNSLKPEDTAVYYCAKGPRGAHRTHGAYVEMEYWGQGTQVTVSS", "polyreactivity (PSR sort gate)": "low polyreactivity"}, {"sequence": "QVQLVESGGGLVQAGGSLRLICAASGFTFYKYTMGWYRQAPGKERELVAAISARGGSTYYADSVKGRFTISRDNAKNTVYLQMNSLKPEDTAVYYCAADYWRTYGLGYDYWGQGTQVTVSS", "polyreactivity (PSR sort gate)": "high polyreactivity"}, {"sequence": "QVQLVESGGGLVQAGGSLRLICAASGSTFESYAMGWYRQAPGKERELVAAISRRGGRTYYADSVKGRFTISRDNAMNTVSLQMYSLKPEDTAVYYCATDSSYYGSDDYWGQGTQVTVSS", "polyreactivity (PSR sort gate)": "high polyreactivity"}, {"sequence": "QVQLVESGGGLVQAGGSLRLSCAASGRTSAINAMGWYRQAPGKERELVADITRTGGTYADSVKGRFTISRDNAKNNVYLQMNSLKPEVTAVYYCAAVGAWRFDYWGQGTQVTVSS", "polyreactivity (PSR sort gate)": "high polyreactivity"}, {"sequence": "QVQLVESGGGLVQAGGTLRLSCAASGSIFPYYVMGWYRQAPGKERELVAAISTSDGSTYADSVKGRFTISRDNAKNTVYFQMNSLKPEDTAVYYCAVANVYYEGYDYWGQGTQVTVSS", "polyreactivity (PSR sort gate)": "low polyreactivity"}]}]}
